Results from the supplement of paper PMC12855868.

B1: library; numbered along this chain (parent)
chain: MAAAGGARLLRAASAVLGGPAGRWLHHAGSRAGSSGLLRNRGPGGSAEASRSLSVSARARSSSEDKITVHFINRDGETLTTKGKVGDSLLDVVVENNLDIDGFGACEGTLACSTCHLIFEDHIYEKLDAITDEENDMLDLAYGLTDRSRLGCQICLTKSMDNMTVRVPETVADARQSIDVGKTS

Variants of: B1
Assay: scaled log2 fold change in cell abundance, elesclomol vs control (0 = silent mean, 1 = nonsense mean) (scaled log2 ratio); higher = higher viability under elesclomol (loss of FDX1 cuproptosis function)
Details: glucose 10 mM
[1] = with ABC1 FDX1 KO, elesclomol 5 nM, 14 days
[2] = with HEK293T FDX1 KO, elesclomol 40 nM, 11 days
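Note: variant abundance is its share of total variant reads in each endpoint sample, from next-generation sequencing of the integrated ORF PCR-amplified out of genomic DNA.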

Row | Variant | scaled log2 fold change [1] | scaled log2 fold change [2]
1 | MAAAGGARLLRAASAVLGGPAGRWLHHAGSRAGSSGLLRNRGPGGSAEASRSLSVSARARSSSEDKITVHFINRDGETLTTKGKVGDSLLDVVVENNLDIDGFGACEGTLACSTCHLIFEDHIYEKLDAITDEENDMLDLAYGLTDRSRLGCQVCLTKSMDNMTVRVPETVADARQSIDVGKTS | -0.0239 | -1.6
2 | MAAAGGARLLRAASAVLGGPAGRWLHHAGSRAGSSGLLRNRGPGGSAEASRSLSVSARARSSSEDKITVHFINRDGETLTTKGKVGDSLLDVVVENNLDIDGFGACEGTLACSTCHLIFEDHIYEKLDAITDEENDMLDLAYGLTDRSRLGCQTCLTKSMDNMTVRVPETVADARQSIDVGKTS | -0.043 | -0.257
3 | MAAAGGARLLRAASAVLGGPAGRWLHHAGSRAGSSGLLRNRGPGGSAEASRSLSVSARARSSSEDKITVHFINRDGETLTTKGKVGDSLLDVVVENNLDIDGFGACEGTLACSTCHLIFEDHIYEKLDAITDEENDMLDLAYGLTDRSRLGCQQCLTKSMDNMTVRVPETVADARQSIDVGKTS | 0.399 | 0.268
4 | MAAAGGARLLRAASAVLGGPAGRWLHHAGSRAGSSGLLRNRGPGGSAEASRSLSVSARARSSSEDKITVHFINRDGETLTTKGKVGDSLLDVVVENNLDIDGFGACEGTLACSTCHLIFEDHIYEKLDAITDEENDMLDLAYGLTDRSRLGCQNCLTKSMDNMTVRVPETVADARQSIDVGKTS | 0.748 | 0.148
5 | MAAAGGARLLRAASAVLGGPAGRWLHHAGSRAGSSGLLRNRGPGGSAEASRSLSVSARARSSSEDKITVHFINRDGETLTTKGKVGDSLLDVVVENNLDIDGFGACEGTLACSTCHLIFEDHIYEKLDAITDEENDMLDLAYGLTDRSRLGCQPCLTKSMDNMTVRVPETVADARQSIDVGKTS | 1.04 | 0.814
6 | MAAAGGARLLRAASAVLGGPAGRWLHHAGSRAGSSGLLRNRGPGGSAEASRSLSVSARARSSSEDKITVHFINRDGETLTTKGKVGDSLLDVVVENNLDIDGFGACEGTLACSTCHLIFEDHIYEKLDAITDEENDMLDLAYGLTDRSRLGCQSCLTKSMDNMTVRVPETVADARQSIDVGKTS | 0.481 | 0.0924
7 | MAAAGGARLLRAASAVLGGPAGRWLHHAGSRAGSSGLLRNRGPGGSAEASRSLSVSARARSSSEDKITVHFINRDGETLTTKGKVGDSLLDVVVENNLDIDGFGACEGTLACSTCHLIFEDHIYEKLDAITDEENDMLDLAYGLTDRSRLGCQMCLTKSMDNMTVRVPETVADARQSIDVGKTS | 0.363 | 0.583
8 | MAAAGGARLLRAASAVLGGPAGRWLHHAGSRAGSSGLLRNRGPGGSAEASRSLSVSARARSSSEDKITVHFINRDGETLTTKGKVGDSLLDVVVENNLDIDGFGACEGTLACSTCHLIFEDHIYEKLDAITDEENDMLDLAYGLTDRSRLGCQRCLTKSMDNMTVRVPETVADARQSIDVGKTS | 1.01 | 0.787
